According to patent US20210347908A1 (ELPISCIENCE SUZHOU BIOPHARMA, published 2021):
Residue numbers refer to the chain shown, from its start.

T1: full length C57BL/6 mouse SIRPα stably expressed on CHOK1 cells (mouse (C57BL/6), UniProt P97797 32-513)
T1 construct: whole, on cells; also called CHOK1-C57BL/6 mouse SIRPα-2.22 cells
T1 sequence (looked up): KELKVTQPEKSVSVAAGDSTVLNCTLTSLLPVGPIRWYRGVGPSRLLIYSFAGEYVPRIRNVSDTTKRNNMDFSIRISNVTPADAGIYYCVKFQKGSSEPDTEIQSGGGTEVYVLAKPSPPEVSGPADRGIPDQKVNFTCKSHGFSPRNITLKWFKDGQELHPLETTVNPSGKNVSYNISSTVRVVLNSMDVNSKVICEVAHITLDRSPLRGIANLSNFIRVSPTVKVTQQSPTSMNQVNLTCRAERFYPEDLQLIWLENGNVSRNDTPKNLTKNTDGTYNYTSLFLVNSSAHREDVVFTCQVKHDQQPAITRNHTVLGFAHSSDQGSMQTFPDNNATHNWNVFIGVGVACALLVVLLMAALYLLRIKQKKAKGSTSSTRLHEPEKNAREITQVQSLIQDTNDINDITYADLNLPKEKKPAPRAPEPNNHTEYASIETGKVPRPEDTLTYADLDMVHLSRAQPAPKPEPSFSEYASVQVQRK

B1: Antibody 050 (hybridoma antibody) (antibody, V domains shown)
VH: QIQLVQSGPELKKPGETVKISCKASGYTFTHYSMHWVKQAPGKGLKWMGWINTETAEPTYVDDFKGRFAFSLEASASTAFFQINNLKNEDTATYFCARGGLRQGDYWGQGTTLTVSS
VL: QIVLTQSPPIMSASPGEKVTLTCSATSSVSASYLYWFQQKPGSSPKLWIYSTSNLASGVPARFSGSGSGTSYSLTISNMEPADAASYFCHQWSSYPYTFGGGTKLEIK
notes: mouse hybridoma antibody
B2: Antibody 060 (hybridoma antibody) (antibody, V domains shown)
VH: QVQLKESGPGLVAPSESLSITCTVSGFSLTNYDISWIRQSPGKGLEWLGVIWTGGDTNFNSAFMSRLSISKDKSKSQVFLKLNSLQTDDTAIYYCVRVQYFGGSYGPMDYWGQGISVTVSS
VL: DIQMTQASSYLSVSLGGRVTITCEASDHINDWLAWYQQTPGNAPRLLISGATSLETGVPSRFSGSGSGKDYTLSITSLQTEDIATYYCQQYWNTPLTFGAGTRLELK
notes: mouse hybridoma antibody
B3: Antibody 001 (hybridoma antibody) (antibody, V domains shown)
VH: EVKLEESGGGLVQPGGSMKLSCVASGFTFRNYWMNWVRQSPERGLEWIAEISLKSNTYATHYAESVKGRFAISRDGSKSSFYLQMNDLRAEDTGIYYCTTFTKVVADWHLDVWGAGTTVTVSS
VL: DVLMTQTPLSLPVSLGDQASISCRSSQNIVHSNGNTYLEWYLQKPGQSPKLLIYKVSNRFSGVPDRFSGSGSGTDFTLRISRVEAEDLGVYYCFQGSHVPFTFGSGTKLEIK
notes: mouse hybridoma antibody
B4: Antibody 002 (hybridoma antibody) (antibody, V domains shown)
VH: B3 VH with K19I, S52T, G76D, A90P
VL: B3 VL with V56I, K112Q
notes: mouse hybridoma antibody
B5: Antibody 032 (hybridoma antibody) (antibody, V domains shown)
VH: B3 VH with K3R, A24V, S52T, G76D, A90P
VL: B3 VL with S14N
notes: mouse hybridoma antibody
B6: Antibody 035 (hybridoma antibody) (antibody, V domains shown)
VH: QIQLVQSGPELRKPGETVKISCKASGYSFTNYAMNWVKQAPGKVLKWMGFINTYTGEPTYADDFKGRFAFSLETSASTAYLQINNLKNEDTATYFCTRTRGYYDFDGGAFDYWGQGTSLTVSS
VL: DIVMTQSQKFMSTSIGDRVSVTCKASQNVGTHLAWYQQKPGQSPKALIFSASYRYIGVPDRFTGSGSGTDFTLTITNVQSEDLAEYFCQQYNTYPLTFGAGTKLELK
notes: mouse hybridoma antibody
B7: Antibody 074 (hybridoma antibody) (antibody, V domains shown)
VH: QVQLQQPRAELVKPGASVMLSCKASGYTFSSYWIHWVRQGPGQGLEWIGLIHPNSGNTDCSETFKNKATLTVDTSSSTAYMQLSSLASEDSAVYYCARDGASYDWFVHWGQGTLVTVSA
VL: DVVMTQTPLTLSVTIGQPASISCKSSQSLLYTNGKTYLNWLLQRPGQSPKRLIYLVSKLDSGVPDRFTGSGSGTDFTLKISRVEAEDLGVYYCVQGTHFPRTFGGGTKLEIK
notes: mouse hybridoma antibody
B8: Antibody 022 (hybridoma antibody) (antibody, V domains shown)
VH: QIQLVQSGPELKKPGETVKISCKASGYTFTDYAMHWVKQAPGKGLKWMGWKNTETGESTYAEDFKGRFAFFLETSASTAYLQINNVKNEDTATYFCARGGYGSNYVMDYWGQGTSVIVSS
VL: DIQMTQSSSSFSVSLGDRVTITCKASEDIYNRLAWYQQKPGNAPRLLISGATSLETGVPSRFSGSGSGKDYTLSITSLQTEDVATYYCQQYWNSPRTFGGGTKLEIK
notes: mouse hybridoma antibody
B9: reference antibody HEFLB (antibody, V domains shown)
VH: EVQLVQSGAEVKKPGESLRISCKASGYSFTSYWVHWVRQMPGKGLEWMGNIDPSDSDTHYSPSFQGHVTLSVDKSISTAYLQLSSLKASDTAMYYCVRGGTGTLAYFAYWGQGTLVTVSS
VL: DVVMTQSPLSLPVTLGQPASISCRSSQSLVHSYGNTYLYWFQQRPGQSPRLLIYRVSNRFSGVPDRFSGSGSGTDFTLKISRVEAEDVGVYYCFQGTHVPYTFGGGTKVEIK
B10: chimeric antibody 060c (antibody, V domains shown)
VH: B2 VH
VL: B2 VL
B11: chimeric antibody 055c (antibody, V domains shown)
VH: EVKLVESEGGLVQPGDSMKLSCTASGFTFSDYFMTWIRQVPEKGLEWIANVNYDGRSTYYLDSLKSRFIISRDNANNILYLQMSSLKSEDTATYYCAREGSQTPLYAVDYWGQGTSVTVSS
VL: DIVMTQSQKFMSTTVGDRVNITCKASQNVGTAVAWYQQKPGQSPKLLIYLASNRYTGVPDRFTGSGSGTDFTLTVSDMRSEDLADYFCQQYSIYPFTFGSGTKLEIK

Each binder was assayed against T2, biotin labeled soluble human SIRPα v1 ECD recombinant protein (human, UniProt P78324 31-373, biotin labeled) (assay: competitive ELISA; competitor 032).
T2 construct: extracellular domain
T2 sequence (P78324 31-373): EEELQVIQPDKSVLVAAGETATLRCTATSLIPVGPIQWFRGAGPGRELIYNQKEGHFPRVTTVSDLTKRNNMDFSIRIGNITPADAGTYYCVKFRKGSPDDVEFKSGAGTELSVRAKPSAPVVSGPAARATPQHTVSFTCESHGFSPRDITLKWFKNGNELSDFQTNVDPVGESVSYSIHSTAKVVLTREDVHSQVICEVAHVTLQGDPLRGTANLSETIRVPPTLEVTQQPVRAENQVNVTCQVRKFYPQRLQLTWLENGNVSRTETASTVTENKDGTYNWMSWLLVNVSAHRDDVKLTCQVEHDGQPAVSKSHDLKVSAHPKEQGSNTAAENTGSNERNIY
Description: (§1) Competitive ELISA assay was used for epitope binning of 9 functional antibodies. Briefly excessive competitor antibody and biotin labeled soluble human SIRPα v1 ECD recombinant protein were co-incubated with ELISA microplate coated antibody. After washing, HRP-SA was added and incubated at 37° C. for 1 hour. Then, […] of TMB solution (Biotechnology) was added. After incubation for 15 minutes at room temperature, the reaction was stopped by the addition of […] of 1N HCl. OD 450 nm was read. Competition ratio was calculated. The antibodies that can compete each other for binding to SIRPα have the similar binding epitope.

% Competition [%] | Binder
8 | B1
4 | B2
96 | B3
92 | B4
94 | B5
89 | B6
34 | B7
4 | B8
91 | B9

What follows are binders tested against T1, full length C57BL/6 mouse SIRPα stably … (assay: FACS on CHOK1 cells).
Description: (§2) Species cross reactivity of the purified hybridoma antibodies against human, cyno and mouse SIRPα was determined by FACS assay using CHOK1-human SIRPα v1-1B4 cells, CHOK1-cyno SIRPα-2A2 cells, and CHOK1-C57BL/6 mouse SIRPα-2.22 cells, which stably expressing SIRPα protein. Briefly the antibodies were incubated with 2×10⁵ target cells at 4° C. for 1 hour. After washing, fluorescence labeled anti-mouse or anti-human IgG 2nd antibody (Life Technologies) was added and incubated at 4° C. for 1 hour. Geometric median fluorescence intensity was detected and EC₅₀ was calculated. In particular, it is noted, in contrast to the other antibodies tested in the same experiment, 060 cannot bind with cyno SIRPα and 035 has cross reactivity against C57BL/6 mouse SIRPα.
(§3) The purified chimeric antibodies were applied for binding specificity analysis and species cross reactivity analysis (refer to methods described in Example 3.3 and 3.4). FIGS. 1A to 1D show binding specificity of anti-SIRPα chimeric antibodies against recombinant proteins of human SIRPα v1 ECD (A), human SIRPα v2 ECD (B), human SIRPβ ECD (C) and human SIRPγ ECD (D) as measured by ELISA analysis.

binding result | Binder
no binding (tested: 10 nM) | B10
no binding (tested: 10 nM) | B9
no binding (tested: 10 nM) | B11

What follows are binders tested against T3, full length human SIRPα v1 stably expressed on CHOK1 cells (human, UniProt P78324 31-504) (assay: FACS on CHOK1 cells).
T3 construct: whole, on cells; also called CHOK1-human SIRPα v1-1B4 cells; CHOK1-human SIRPα v1
T3 sequence (P78324 31-504): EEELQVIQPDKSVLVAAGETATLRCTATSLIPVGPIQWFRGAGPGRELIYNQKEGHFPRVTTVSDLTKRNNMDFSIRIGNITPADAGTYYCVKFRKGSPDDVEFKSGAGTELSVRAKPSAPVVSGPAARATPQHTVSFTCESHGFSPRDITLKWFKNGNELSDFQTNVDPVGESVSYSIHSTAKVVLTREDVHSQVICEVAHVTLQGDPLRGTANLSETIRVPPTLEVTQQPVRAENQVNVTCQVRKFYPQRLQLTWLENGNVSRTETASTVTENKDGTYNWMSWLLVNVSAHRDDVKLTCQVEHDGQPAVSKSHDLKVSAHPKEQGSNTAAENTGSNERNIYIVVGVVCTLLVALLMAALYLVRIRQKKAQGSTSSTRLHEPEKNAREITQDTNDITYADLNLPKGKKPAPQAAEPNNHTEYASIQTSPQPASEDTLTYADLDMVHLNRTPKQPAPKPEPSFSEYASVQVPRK
Description: as §2, §3

EC50 [pM] | Binder
2800 | B10
11200 | B9
3400 | B11

These binders were tested against T4, Fc tagged human SIRPα v2 ECD recombinant protein (human) (assay: ELISA).
T4 construct: range 1-369; cloned range M1-R369 includes the signal peptide; also called hSIRPα V2
Description: (§4) Binding specificity of the purified hybridoma antibodies against SIRP family members was detected by ELISA assay using recombinant proteins of Fc tagged human SIRPα v1 ECD, human SIRPα v2 ECD, human SIRPβ ECD and human SIRPγ ECD. Briefly the antibodies were incubated with ELISA microplate coated antigens at 37° C. for 1 hour. After washing, horseradish peroxidase (HRP) labeled anti-mouse or anti-human IgG 2nd Ab (Sigma) was added and incubated at 37° C. for 1 hour. Then, 100 μl/well of TMB solution (Biotechnology) was added. After incubation for 15 minutes at room temperature, the reaction was stopped by the addition of 50 μl of 1N HCl. OD 450 nm was read and EC₅₀ was calculated. Other than 060 and HEFLB, all of the antibodies as tested can bind with both human SIRPα v1 and SIRPα v2. 060 and HEFLB can bind with human SIRPα v1 but not v2. Other than 055, all of the antibodies as tested can bind with human SIRPβ. In comparison with other known anti-SIRPα antibodies, only 022, 035 and 050 can bind with human SIRPγ weakly.
as §3

EC50 [pM] | Binder
110 | B11

These binders were tested against T5, Fc tagged human SIRPβ ECD recombinant protein (human, UniProt O00241 30-371) (assay: ELISA).
T5 construct: range 1-371; cloned range includes the signal peptide; also called hSIRPβ; not shown: human IgG Fc region (hFc) of the pCPC vector
T5 sequence (O00241 30-371 limits assumed, form in doubt): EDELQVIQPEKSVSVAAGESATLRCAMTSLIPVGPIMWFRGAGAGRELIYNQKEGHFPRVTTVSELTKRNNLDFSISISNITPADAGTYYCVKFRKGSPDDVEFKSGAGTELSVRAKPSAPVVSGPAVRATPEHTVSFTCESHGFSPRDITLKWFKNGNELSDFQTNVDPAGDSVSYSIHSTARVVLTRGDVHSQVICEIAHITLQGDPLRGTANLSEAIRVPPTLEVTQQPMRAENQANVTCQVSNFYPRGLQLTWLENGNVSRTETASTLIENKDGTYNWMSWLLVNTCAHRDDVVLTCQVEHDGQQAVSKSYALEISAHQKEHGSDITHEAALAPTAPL
Description: as §4, §3

EC50 [pM] | Binder
240 | B10
80 | B9

Each binder was assayed against T6, Fc tagged human SIRPα v1 ECD recombinant protein (human, UniProt P78324 31-370) (assay: ELISA).
T6 construct: range 1-370; cloned range M1-R370 includes the signal peptide; also called hSIRPα V1; not shown: human IgG Fc region (hFc) of the pCPC vector
T6 sequence (P78324 31-370 limits assumed): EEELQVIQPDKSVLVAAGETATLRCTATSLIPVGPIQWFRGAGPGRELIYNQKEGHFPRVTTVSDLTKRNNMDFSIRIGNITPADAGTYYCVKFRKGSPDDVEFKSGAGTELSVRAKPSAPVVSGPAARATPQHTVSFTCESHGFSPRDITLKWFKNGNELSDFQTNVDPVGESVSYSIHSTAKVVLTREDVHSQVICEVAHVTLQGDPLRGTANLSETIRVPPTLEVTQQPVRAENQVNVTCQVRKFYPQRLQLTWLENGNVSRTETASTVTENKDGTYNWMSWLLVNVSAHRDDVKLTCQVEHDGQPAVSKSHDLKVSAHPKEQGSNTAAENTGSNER
Description: as §4, §3

EC50 [pM] | Binder
80 | B10
110 | B9
110 | B11

Target: T6, Fc tagged human SIRPα v1 ECD …
Test: ELISA
Remark: another data set of the same source
Description: as §4, §3

EC50 [pM] | Binder
80 | B10
110 | B9
110 | B11

Target: T3, full length human SIRPα v1 stably …
Test: FACS on CHOK1 cells
Remark: another data set of the same source
Description: as §2

EC50 [pM] | Binder
1300 | B1
900 | B2
1000 | B3
1000 | B4
400 | B5
700 | B6
1000 | B7
2100 | B8
11200 | B9

Each binder was assayed against T2, biotin labeled soluble human SIRPα v1 … (assay: competitive ELISA; competitor 035).
Description: as §1

% Competition [%] | Binder
-4 | B1
3 | B2
96 | B3
93 | B4
91 | B5
93 | B6
10 | B7
0 | B8
51 | B9

Target: T3, full length human SIRPα v1 stably …
Test: FACS on CHOK1 cells
Remark: another data set of the same source
Description: as §2, with “SIRPα. […]” for “SIRPα.”

EC50 [pM] | Binder
2800 | B10
11200 | B9
3400 | B11
